First the molecules themselves.
B1: Human SS18 (residues 1-387), purified recombinant [human] / BRG1^(1-282), N-terminal 282-residue fragment of BRG1 [human] (parent complex)
chain 1: MSVAFAAPRQRGKGEITPAAIQKMLDDNNHLIQCIMDSQNKGKTSECSQYQQMLHTNLVYLATIADSNQNMQSLLPAPPTQNMPMGPGGMNQSGPPPPPRSHNMPSDGMVGGGPPAPHMQNQMNGQMPGPNHMPMQGPGPNQLNMTNSSMNMPSSSHGSMGGYNHSVPSSQSMPVQNQMTMSQGQPMGNYGPRPNMSMQPNQGPMMHQQPPSQQYNMPQGGGQHYQGQQPPMGMMGQVNQGNHMMGQRQIPPYRPPQQGPPQQYSGQEDYYGDQYSHGGQGPPEGMNQQYYPDGNSQYGQQQDAYQGPPPQQGYPPQQQQYPGQQGYPGQQQGYGPSQGGPGPQYPNYPQGQGQQYGGYRPTQPGPPQPPQQRPYGYDQGQYGNYQQ
chain 2: MSTPDPPLGGTPRPGPSPGPGPSPGAMLGPSPGPSPGSAHSMMGPSPGPPSAGHPIPTQGPGGYPQDNMHQMHKPMESMHEKGMSDDPRYNQMKGMGMRSGGHAGMGPPPSPMDQHSQGYPSPLGGSEHASSPVPASGPSSGPQMSSGPGGAPLDGADPQALGQQNRGPTPFNQNQLHQLRAQIMAYKMLARGQPLPDHLQMAVQGKRPMPGMQQQMPTLPPPSVSATGPGPGPGPGPGPGPGPAPPNYSRPHGMGGPNMPPPGPSGVPPGMPGQPPGGPPK

One variant from paper PMC9117659, “Phase transition and remodeling complex assembly are important for SS18-SSX oncogenic activity in synovial sarcomas” (Nature Communications, 2022) can be followed below.

The assay covers variants of B1. Description: sedimentation assay; 60 µM each protein; parent: 65; read off a plot.
For the variant chain 1 I32E, chain 1 L54E, chain 1 A65E, the screen value is approximately 6%.
